Reference: patent US20160152729A1 (Novo Nordisk, published 2016)
Positions count from the first letter of the chain named.

B1: FXa (enzyme)
chain 1: ANSFLEEMKKGHLERECMEETCSYEEAREVFEDSDKTNEFWNKYKDGDQCETSPCQNQGKCKDGLGEYTCTCLEGFEGKNCELFTRKLCSLDNGDCDQFCHEEQNSVVCSCARGYTLADNGKACIPTGPYPCGKQTLER
chain 2: IVGGQECKDGECPWQALLINEENEGFCGGTILSEFYILTAAHCLYQAKRFKVRVGDRNTEQEEGGEAVHEVEVVIKHNRFTKETYDFDIAVLRLKTPITFRMNVAPACLPERDWAESTLMTQKTGIVSGFGRTHEKGRQSTRLKMLEVPYVDRNSCKLSSSFIITQNMFCAGYDTKQEDACQGDSGGPHVTRFKDTYFVTGIVSWGEGCARKGKYGIYTKVTAFLKWIDRSMKTRGLPKAKSHAPEVITSSPLK
B2: mAb 1F56 (antibody, V domains shown)
VH: DVQLQESGPGLVKPSQSLSLTCTVSGYSITSDYAWNWIRQFPGNKLEWMGYISYSGSTSYNPSLKSRISITRDTSKNQFFLQLNSVTTEDTATYYCARWAYDGPWGQGTLVTVSA
VL: QIVLSQSPALLSASPGEKVTMTCRASSSVSHMHWYQQKPGSSPKPWIYATSNLASGVPARFSGSGSGTSYSLTITRVEAEDAATYYCQQWSSNPFTFGSGTKLEIKR
notes: murine antibody from hybridoma
B3: mAb 2F22 (antibody, IgG1, V domains shown)
VH: QVQLKQSGPGLVQPSQSLSITCTVSGFSLTNYGVHWVRQSPGKGLEWLAVIWRGGSIDYNAAFMSRLSITKDNSKSQVFFKMNSLQADDTAIYYCAKNSHGNYVGYAMDYWGQGTSVTVSS
VL: GIVMTQSQKFMSTTVGDRVSITCKASQSVGPAVAWYQQKPGQSPKLLIYSASNRYTGVPDRFTGSGSGADFTLTISNLHSEDLADYFCQQYTSYPTFGGGTKLEIKR
notes: Murine mIgG1, kappa light chain
B4: mAb 2F3 (antibody, IgG1, V domains shown)
VH: B3 VH with T30S, N31S, A49G, I57T, Y59F, L67V, I69F
VL: DIVMTQSQKFMSTTVGDKVSIPCKASENVGAAVAWYQQKPGQSPTLLIYSASNRYTGIPDRFTGSGSGTDFTLTIRTVQSEDLADYFCQQYTNYPTFGGGTKLEIKR
notes: as for B3
B5: mAb 1F91 (antibody, IgG1, V domains shown)
VH: B2 VH
VL: B2 VL
notes: as for B3
B6: mAb 2F35 (antibody, IgG1, V domains shown)
VH: EVQLQQSGAELVRPGALVKLSCKASGFNIKDYYIHWVKQRPEQGLEWIGWIDPENGNTIFDPKFQGRASITADTSSNTAYLQLSSLTSEDTAVYYCAGRWYAMDYWGQGTSVTVSS
VL: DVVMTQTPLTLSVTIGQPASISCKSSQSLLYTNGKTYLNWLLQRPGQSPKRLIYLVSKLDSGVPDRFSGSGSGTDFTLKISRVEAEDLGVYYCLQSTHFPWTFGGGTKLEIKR
notes: as for B3
B7: Fab 0295 (Fab, V domains shown)
VH: B3 VH
VL: B3 VL
notes: Chimeric Fab of mAb 2F22; heavy chain truncated after the first cysteine of the human IgG4 hinge
B8: Fab 0296 (Fab, V domains shown)
VH: B3 VH
VL: B3 VL
notes: Chimeric Fab of mAb 2F22; heavy chain truncated after the human IgG4 hinge lysine; also called anti-TFPI2F22 Fab

Molecular target: T1, human TFPIα (human, UniProt P10646 29-304)
T1 construct: recombinant full-length TFPIα in the assays; also called TFPI alpha; full-length TFPIα
Assay: SPR Biacore T200; TFPIα held by captured mAb 2F48

| Binder | fold decrease of the affinity for TFPI to FXa, against TFPI bound to mAb 4F110 [fold] |
| --- | --- |
| B1 | < 10 |

Molecular target: T1, human TFPIα
Assay: cell-based or functional assay

| Binder | FXa activity (%); FXa generated after 30 min by FVIIa/Innovin/FX with 4 nM TFPIα, 64 nM antibody [%] |
| --- | --- |
| B2 | 18.4 |
| B3 | 40.5 |
| B4 | 36.6 |
| B5 | 13.9 |
| B6 | 18.3 |

Molecular target: T1, human TFPIα
Assay: cell-based or functional assay
Remark: another data set of the same source

| Binder | FVIIa/sTF activity (%); 150 nM TFPIα, 200 nM antibody [%] | FXa activity (%) after 100 min incubation; 4 nM TFPIα, 20 nM antibody [%] |
| --- | --- | --- |
| B3 | 88.3 | 60.8 |
| B4 | 88.6 | 58.1 |
| B5 | 82.2 | 5.1 |
| B6 | 61.4 | 4.2 |

Molecular target: T1, human TFPIα
Assay: cell-based or functional assay
Remark: another data set of the same source

| Binder | FXa activity (%); remaining FXa amidolytic activity after 40 min, 32 nM mAb pre-incubated with 8 nM TFPIα [%] |
| --- | --- |
| B2 | 5.5 |
| B3 | 50.4 |
| B4 | 48.9 |
| B5 | 5.8 |
| B6 | 13.4 |

Molecular target: T1, human TFPIα
Assay: SPR Biacore T200; Fab captured on Human Fab Binder; TFPIα as analyte; 1:1 model; 25 °C
Procedure: Human Fab Binder (Human Fab Capture Kit, GE Healthcare) was immobilized to a series S CM4 sensor chip (GE Healthcare) in flow-cells 1-4 at 9000-10000 response units (RU) using the amine coupling protocol available within the Biacore T-200 control software (GE Healthcare) and the reagents provided with the Amine Coupling Kit (GE Healthcare). […] Different concentrations of human TFPIα were tested by diluting the sample in running buffer (10 mM HEPES, pH 7.4, 300 mM NaCl, 5 mM CaCl₂, 0.05% Surfactant P20, 1 mg/ml BSA). Each sample was assayed using 300 seconds of contact time followed by 600 seconds of dissociation time at 50 μl/min flow rate. A buffer blank was also assayed. The sensor surface was regenerated with 10 mM Glycine pH 2.1 with two cycles each of 30 seconds at 50 μl/min flow rate. The analysis temperature was 25° C. and the sample compartment temperature 10° C.
(§1) The Biacore T200 Evaluation software (version 2.0) was used to analyse the data. Determination of binding constants (kₐ, kd, KD) was obtained assuming a 1:1 interaction of TFPI and the monoclonal antibody of interest.

| Binder | Kd [nM] |
| --- | --- |
| B7 | 0.41 |
| B8 | 0.72 |

Molecular target: T1, human TFPIα
Assay: SPR Biacore T200; mAb captured on anti-mouse Ig; TFPI as analyte; 1:1 model
Source text: (§2) Binding interaction data were obtained by means of Surface Plasmon Resonance in a Biacore T200 instrument. Polyclonal rabbit anti-mouse immunoglobulin (Mouse Antibody Capture Kit, GE Healthcare) was immobilized to a series S CM4 sensor chip (GE Healthcare) in flow-cells 1-4 using the amine coupling protocol available with the Biacore T-200 control software version 2.0 (GE Healthcare) and the reagents provided with the Amine Coupling Kit (GE Healthcare). The relevant mouse monoclonal antibody was captured in flow cell 2, 3, or 4 at a fixed concentration. Different concentrations of human TFPIα or TFPI (1-79) were tested by diluting the sample in running buffer (10 mM HEPES, pH 7.4, 300 mM NaCl, 5 mM CaCl₂, 0.05% Surfactant P20, 1 mg/ml BSA). Each sample was assayed using 300 seconds of contact time followed by 420-600 seconds of dissociation time at 30 μl/min flow rate. A buffer blank was also assayed. The sensor surface was regenerated with 10 mM Glycine pH 1.7 either for 180 sec at 30 μl/min flow rate or with two cycles each of 30 seconds at 30 μl/min flow rate.
as §1

| Binder | Kd [nM] | koff [s⁻¹] | kon [M⁻¹ s⁻¹] |
| --- | --- | --- | --- |
| B2 | 9.81 | 0.00361 | 368000 |
| B3 | 0.688 | – | – |
| B4 | 0.448 | 7.69e-05 | 172000 |
| B5 | 10 | 0.00349 | 347000 |
| B6 | 6.27 | 0.00141 | 224000 |

Molecular target: T2, human TFPI (1-79) (human, UniProt P10646 29-107)
T2 construct: Acidic N-terminal region and KPI-1 domain
Assay: as above
Source text: as §2, §1

| Binder | Kd [nM] | koff [s⁻¹] | kon [M⁻¹ s⁻¹] |
| --- | --- | --- | --- |
| B2 | 13.5 | 0.00505 | 375000 |
| B3 | 0.965 | – | – |
| B4 | 0.561 | 0.000154 | 274000 |
| B5 | 15.1 | 0.005 | 330000 |
| B6 | 13.3 | 0.00251 | 188000 |

Molecular target: T1, human TFPIα
Assay: cell-based or functional assay
Remark: another data set of the same source

| Binder | Thrombin peak height (Peak); thrombin generation in FVIII-neutralised plasma + 20 nM TFPIα, 200 nM antibody [nM] |
| --- | --- |
| B3 | 23.7 |
| B4 | 20.9 |
| B5 | 0 |
| B6 | 0 |

Molecular target: T1, human TFPIα
Assay: cell-based or functional assay
Remark: another data set of the same source

| Binder | Thrombin peak height (Peak); thrombin generation in FVIII-neutralised plasma + 5 nM TFPIα, 10 nM antibody [nM] | Thrombin peak height (Peak); thrombin generation in FVIII-neutralised plasma, no TFPIα added (plasma TFPI), 10 nM antibody [nM] | time to peak (ttPeak); thrombin generation in FVIII-neutralised plasma + 5 nM TFPIα, 10 nM antibody [min] | time to peak (ttPeak); thrombin generation in FVIII-neutralised plasma, no TFPIα added (plasma TFPI), 10 nM antibody [min] |
| --- | --- | --- | --- | --- |
| B2 | 3.7 | 35.2 | 47.8 | 8.9 |
| B3 | 46.5 | 100 | 11.3 | 9.1 |
| B4 | 28.6 | 88.4 | 13.8 | 9.3 |
| B5 | 3.6 | 34.6 | 51.8 | 9 |
| B6 | 3.6 | 30.4 | 70.3 | 9.6 |

Molecular target: T1, human TFPIα
Assay: SPR Biacore T200; TFPIα held by captured mAb 2F22

| Binder | fold decrease of the affinity for TFPI to FXa, against TFPI bound to mAb 4F110 [fold] |
| --- | --- |
| B1 | > 30 |
